In PMC2288786 (BMC Structural Biology, 2008):

What was measured:
Conditions in all cases: both partners purified
[1] = target: T1, calmodulin (recombinant, from the expression construct pETCM with vertebrate CaM cDNA) ( (vertebrate CaM cDNA), UniProt P0DP23 2-149); test: SPR; Biacore 3000; CaM immobilised by amine coupling (4000 RU); peptide 2.5-200 μM injected; 10 mM HEPES pH 7.5, 150 mM NaCl, 4 mM CaCl2, 0.005% P-20; 30 μl/min; two-state conformational change model; also 2-site model on equilibrium RU
[2] = target: T1, calmodulin (recombinant, from the …); test: ITC; 1.0 mM MBP peptide injected into 0.10 mM CaM; 50 mM HEPES pH 7.5, 20 mM CaCl2; +25°C; fits: one site (peaks 2-7) and 4 sequential sites (peaks 2-20)
[3] = target: T1, calmodulin (recombinant, from the …); test: ITC; 1.0 mM MBP peptide injected into 0.10 mM CaM; 50 mM HEPES pH 7.5, 20 mM CaCl2; +35°C; fits: one site (peaks 2-7) and 4 sequential sites (peaks 2-20)
[4] = target: T1, calmodulin (recombinant, from the …); test: ITC; 1.0 mM MBP peptide injected into 0.10 mM CaM; 50 mM HEPES pH 7.5, 20 mM CaCl2; +30°C; fits: one site (peaks 2-7) and 4 sequential sites (peaks 2-20)
[5] = target: T1, calmodulin (recombinant, from the …); test: small-angle X-ray scattering (SAXS); CaM in solution with and without a 5-fold molar excess of the peptide, 5.4 to 140.0 mg/ml; X33 beamline, DESY
[6] = target: T1, calmodulin (recombinant, from the …); test: ITC; 1.0 mM MBP peptide injected into 0.10 mM CaM; 50 mM HEPES pH 7.5, 20 mM CaCl2; +40°C; fits: one site (peaks 2-7) and 4 sequential sites (peaks 2-20)

B1: MBP peptide HKGFKGVDAQGTLSKIFKL, residues 138-156 of the human MBP 18.5 kDa isoform (peptide)
peptide: HKGFKGVDAQGTLSKIFKL
notes: myelin basic protein, human, 18.5-kDa isoform, residues 138-156; also called the peptide; myelin peptide; source: synthetic peptide, 95% purity; bought: Genemed Synthesis
For B1, which Kd [1] is on record?
Its Kd is 58 µM.

What about the “Kd of the high-affinity binding event (2-site model, equilibrium RU)” value [1] of the same binder?
The value was roughly 10 µM.

And the “Kd of the low-affinity binding event (2-site model, equilibrium RU)” value [1]?
Its value is roughly 1000 µM.

What about the Kd [2] of the same binder?
Its Kd is 3.4 µM.

And the “Kd of the first binding event (4-site model)” value (from here on “Kd of the first binding event”) [2]?
Its value is 1 µM.

And the dH [2]?
Its dH is -1.47 ± 0.13 kcal/mol.

And the “dH of the first binding event (4-site model)” value (“dH of the first binding event” below) [2]?
Its value is -1.44 ± 0.04 kcal/mol.

And the “stoichiometry N” value [2]?
Its value is 0.83 ± 0.23.

What about the Kd [3] of the same binder?
The Kd was 1.9 µM.

What about the “Kd of the first binding event” value [3] of the same binder?
Its value is 1 µM.

And the dH [3]?
The dH was -2.38 ± 0.1 kcal/mol.

What about the “dH of the first binding event” value [3] of the same binder?
The value was -2.34 ± 0.03 kcal/mol.

What about the “stoichiometry N” value [3] of the same binder?
Its value is 0.63 ± 0.02.

And the Kd [4]?
The Kd was 2.3 µM.

And the “Kd of the first binding event” value [4]?
The value was 1.1 µM.

And the dH [4]?
Its dH is -2.11 ± 0.06 kcal/mol.

What about the “dH of the first binding event” value [4] of the same binder?
Its value is -2.07 ± 0.02 kcal/mol.

And the “stoichiometry N” value [4]?
The value was 0.67 ± 0.02.

What about the “stoichiometry N” value [5] of the same binder?
Its value is 1.

And the Kd [6]?
The Kd was 25.9 µM.

What about the “Kd of the first binding event” value [6] of the same binder?
Its value is 1.7 µM.

And the dH [6]?
Its dH is -1.09 ± 0.97 kcal/mol.

What about the “dH of the first binding event” value [6] of the same binder?
The value was -0.73 ± 0.05 kcal/mol.

What about the “stoichiometry N” value [6] of the same binder?
Its value is 0.7 ± 0.17.
